Measurements taken from patent US20160200782A1 (MOERAE MATRIX, published 2016).

T1: TBK1(h) (human, UniProt Q9UHD2 1-729, limits assumed)
T1 sequence (looked up): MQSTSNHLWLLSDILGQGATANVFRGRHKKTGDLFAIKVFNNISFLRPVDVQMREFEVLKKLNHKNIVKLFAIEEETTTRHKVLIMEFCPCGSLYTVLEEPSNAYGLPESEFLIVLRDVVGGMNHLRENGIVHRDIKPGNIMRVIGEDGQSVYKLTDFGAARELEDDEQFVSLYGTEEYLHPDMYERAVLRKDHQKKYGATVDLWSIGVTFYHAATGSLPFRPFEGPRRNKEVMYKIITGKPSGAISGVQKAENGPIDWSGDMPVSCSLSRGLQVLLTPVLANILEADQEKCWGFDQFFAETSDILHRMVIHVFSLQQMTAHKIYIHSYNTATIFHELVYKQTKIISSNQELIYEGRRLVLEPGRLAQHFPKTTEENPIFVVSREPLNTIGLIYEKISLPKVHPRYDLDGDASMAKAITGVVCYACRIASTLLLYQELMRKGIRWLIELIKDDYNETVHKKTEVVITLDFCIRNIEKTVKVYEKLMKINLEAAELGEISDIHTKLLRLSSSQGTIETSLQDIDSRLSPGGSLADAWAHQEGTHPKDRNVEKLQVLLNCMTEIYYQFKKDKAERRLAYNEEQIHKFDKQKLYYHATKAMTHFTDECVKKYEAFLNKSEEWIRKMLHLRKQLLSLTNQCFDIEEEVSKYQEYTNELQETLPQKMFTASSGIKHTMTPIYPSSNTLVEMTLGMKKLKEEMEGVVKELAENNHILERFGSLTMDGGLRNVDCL

T2: NEK11(h) (human, UniProt Q8NG66 1-645, limits assumed)
T2 sequence (looked up): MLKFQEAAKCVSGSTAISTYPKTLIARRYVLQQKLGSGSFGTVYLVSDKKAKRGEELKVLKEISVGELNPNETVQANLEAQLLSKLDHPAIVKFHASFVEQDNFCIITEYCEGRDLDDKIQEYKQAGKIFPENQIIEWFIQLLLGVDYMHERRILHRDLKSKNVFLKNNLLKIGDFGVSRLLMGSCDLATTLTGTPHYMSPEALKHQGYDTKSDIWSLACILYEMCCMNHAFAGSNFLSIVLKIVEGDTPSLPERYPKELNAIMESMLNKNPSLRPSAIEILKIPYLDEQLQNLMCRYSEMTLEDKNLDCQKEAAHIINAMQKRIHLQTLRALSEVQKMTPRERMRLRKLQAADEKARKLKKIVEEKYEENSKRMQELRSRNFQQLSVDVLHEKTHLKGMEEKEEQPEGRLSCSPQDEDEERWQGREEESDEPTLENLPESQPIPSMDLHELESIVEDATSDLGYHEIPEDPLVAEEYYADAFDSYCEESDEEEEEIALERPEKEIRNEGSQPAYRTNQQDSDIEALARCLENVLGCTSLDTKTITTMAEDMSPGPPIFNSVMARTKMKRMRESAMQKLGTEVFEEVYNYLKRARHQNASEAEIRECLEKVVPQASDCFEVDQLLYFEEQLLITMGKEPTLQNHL

T3: Flt3(D835Y)(h) (human, UniProt P36888 564-993, limits assumed)
T3 sequence (looked up): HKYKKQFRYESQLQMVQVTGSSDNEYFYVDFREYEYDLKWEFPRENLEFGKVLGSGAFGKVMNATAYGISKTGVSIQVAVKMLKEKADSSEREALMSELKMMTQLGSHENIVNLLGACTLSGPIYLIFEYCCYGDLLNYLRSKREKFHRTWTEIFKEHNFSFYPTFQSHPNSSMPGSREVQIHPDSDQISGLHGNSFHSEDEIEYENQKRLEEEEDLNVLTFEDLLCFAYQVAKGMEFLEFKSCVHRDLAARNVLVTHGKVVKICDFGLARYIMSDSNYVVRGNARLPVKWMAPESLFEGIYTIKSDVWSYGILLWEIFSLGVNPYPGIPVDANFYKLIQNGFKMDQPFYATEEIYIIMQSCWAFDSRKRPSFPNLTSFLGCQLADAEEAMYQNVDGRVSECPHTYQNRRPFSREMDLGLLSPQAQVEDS

T4: EphB4(h) (human, UniProt P54760 561-987, limits assumed)
T4 sequence (looked up): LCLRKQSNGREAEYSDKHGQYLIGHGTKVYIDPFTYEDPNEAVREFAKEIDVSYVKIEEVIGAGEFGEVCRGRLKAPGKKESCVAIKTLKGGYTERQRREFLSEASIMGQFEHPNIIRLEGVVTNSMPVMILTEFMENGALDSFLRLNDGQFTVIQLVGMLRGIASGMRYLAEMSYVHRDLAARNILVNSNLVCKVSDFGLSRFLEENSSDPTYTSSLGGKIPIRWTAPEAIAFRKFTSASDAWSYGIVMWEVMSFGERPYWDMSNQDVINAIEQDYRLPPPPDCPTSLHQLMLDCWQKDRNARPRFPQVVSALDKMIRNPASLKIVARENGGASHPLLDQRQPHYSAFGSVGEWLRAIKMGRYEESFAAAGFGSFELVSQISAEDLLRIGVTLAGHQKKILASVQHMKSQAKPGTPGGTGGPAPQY


Key:
Assay in all cases: cell-based or functional assay
Fes(h) = Fes(h) (human, UniProt P07332 1-822, limits assumed)
Sequence of Fes(h) (P07332 whole entry): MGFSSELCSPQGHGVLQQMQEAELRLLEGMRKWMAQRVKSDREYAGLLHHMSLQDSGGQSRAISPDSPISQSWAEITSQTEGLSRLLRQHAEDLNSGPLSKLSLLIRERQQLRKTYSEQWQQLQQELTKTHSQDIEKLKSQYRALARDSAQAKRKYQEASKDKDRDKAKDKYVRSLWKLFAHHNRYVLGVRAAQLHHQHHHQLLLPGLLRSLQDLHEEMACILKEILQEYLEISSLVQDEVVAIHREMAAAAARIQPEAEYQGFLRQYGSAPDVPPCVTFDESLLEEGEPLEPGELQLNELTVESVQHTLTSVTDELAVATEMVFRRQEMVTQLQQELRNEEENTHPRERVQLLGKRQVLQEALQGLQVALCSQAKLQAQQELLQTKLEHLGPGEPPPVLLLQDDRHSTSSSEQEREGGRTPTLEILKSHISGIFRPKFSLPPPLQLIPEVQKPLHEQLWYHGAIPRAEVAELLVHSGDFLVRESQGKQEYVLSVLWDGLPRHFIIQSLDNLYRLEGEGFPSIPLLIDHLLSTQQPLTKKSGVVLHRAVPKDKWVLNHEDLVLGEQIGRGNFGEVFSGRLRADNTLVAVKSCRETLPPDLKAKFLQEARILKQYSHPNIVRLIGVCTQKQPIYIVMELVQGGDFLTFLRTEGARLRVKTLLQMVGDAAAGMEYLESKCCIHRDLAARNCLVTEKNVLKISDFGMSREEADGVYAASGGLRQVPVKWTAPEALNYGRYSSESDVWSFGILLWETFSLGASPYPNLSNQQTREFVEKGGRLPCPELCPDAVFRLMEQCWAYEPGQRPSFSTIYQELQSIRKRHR

TBK1(h) = molecular target: T1, TBK1(h)
cSRC(h) = cSRC(h) (human, UniProt P12931 1-536, limits assumed)
NEK11(h) = molecular target: T2, NEK11(h)
PAK6(h) = PAK6(h) (human, UniProt Q9NQU5 1-681, limits assumed)
Sequence of PAK6(h) (Q9NQU5 whole entry): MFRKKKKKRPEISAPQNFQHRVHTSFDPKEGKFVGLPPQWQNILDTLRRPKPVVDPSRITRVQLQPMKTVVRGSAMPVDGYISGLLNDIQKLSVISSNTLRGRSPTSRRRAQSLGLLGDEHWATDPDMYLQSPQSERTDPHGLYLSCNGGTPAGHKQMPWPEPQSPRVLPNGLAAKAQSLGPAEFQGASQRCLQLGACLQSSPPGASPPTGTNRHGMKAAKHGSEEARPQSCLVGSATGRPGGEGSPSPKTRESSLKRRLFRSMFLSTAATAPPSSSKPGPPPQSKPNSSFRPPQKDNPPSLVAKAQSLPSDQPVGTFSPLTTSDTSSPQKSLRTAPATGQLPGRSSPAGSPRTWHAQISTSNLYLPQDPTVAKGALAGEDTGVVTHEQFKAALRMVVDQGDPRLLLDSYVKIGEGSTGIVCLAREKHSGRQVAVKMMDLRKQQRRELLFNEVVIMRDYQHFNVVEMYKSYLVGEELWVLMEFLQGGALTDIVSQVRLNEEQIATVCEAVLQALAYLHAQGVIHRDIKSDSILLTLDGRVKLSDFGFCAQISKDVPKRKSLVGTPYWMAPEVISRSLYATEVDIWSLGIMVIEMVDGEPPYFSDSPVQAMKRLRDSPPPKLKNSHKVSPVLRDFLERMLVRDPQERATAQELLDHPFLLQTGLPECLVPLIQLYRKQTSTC

TrkB(h) = TrkB(h) (human, UniProt Q16620 455-822, limits assumed)
Sequence of TrkB(h) (Q16620 455-822 limits assumed): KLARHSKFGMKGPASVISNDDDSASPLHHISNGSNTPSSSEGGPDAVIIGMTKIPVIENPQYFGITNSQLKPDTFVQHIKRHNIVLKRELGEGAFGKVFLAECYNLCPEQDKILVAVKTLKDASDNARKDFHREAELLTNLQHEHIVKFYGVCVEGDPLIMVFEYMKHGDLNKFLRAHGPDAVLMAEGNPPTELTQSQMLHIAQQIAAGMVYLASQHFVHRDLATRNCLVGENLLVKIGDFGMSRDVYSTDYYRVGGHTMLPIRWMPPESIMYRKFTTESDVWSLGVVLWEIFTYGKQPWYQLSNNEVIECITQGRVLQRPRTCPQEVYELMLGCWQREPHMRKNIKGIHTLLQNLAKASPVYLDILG

MSSK1(h) = MSSK1(h) (human, UniProt Q9UPE1 1-567, limits assumed)
Sequence of MSSK1(h) (Q9UPE1 whole entry): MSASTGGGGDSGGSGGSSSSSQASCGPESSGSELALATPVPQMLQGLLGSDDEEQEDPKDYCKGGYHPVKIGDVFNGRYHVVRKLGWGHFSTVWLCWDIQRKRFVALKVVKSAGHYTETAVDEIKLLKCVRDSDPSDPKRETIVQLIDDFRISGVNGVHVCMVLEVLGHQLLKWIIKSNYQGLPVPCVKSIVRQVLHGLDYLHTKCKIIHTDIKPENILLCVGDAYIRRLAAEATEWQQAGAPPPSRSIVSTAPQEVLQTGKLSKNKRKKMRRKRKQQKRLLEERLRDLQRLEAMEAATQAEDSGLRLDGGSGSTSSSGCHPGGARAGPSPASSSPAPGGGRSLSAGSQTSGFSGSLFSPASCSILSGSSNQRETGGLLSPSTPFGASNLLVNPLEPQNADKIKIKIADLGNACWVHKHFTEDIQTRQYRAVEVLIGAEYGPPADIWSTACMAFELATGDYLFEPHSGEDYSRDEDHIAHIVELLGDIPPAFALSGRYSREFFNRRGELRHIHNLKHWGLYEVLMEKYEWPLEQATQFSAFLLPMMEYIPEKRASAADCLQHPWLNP

PKCθ(h) = PKCθ(h) (human, UniProt Q04759 1-706)
Sequence of PKCθ(h) (Q04759 whole entry): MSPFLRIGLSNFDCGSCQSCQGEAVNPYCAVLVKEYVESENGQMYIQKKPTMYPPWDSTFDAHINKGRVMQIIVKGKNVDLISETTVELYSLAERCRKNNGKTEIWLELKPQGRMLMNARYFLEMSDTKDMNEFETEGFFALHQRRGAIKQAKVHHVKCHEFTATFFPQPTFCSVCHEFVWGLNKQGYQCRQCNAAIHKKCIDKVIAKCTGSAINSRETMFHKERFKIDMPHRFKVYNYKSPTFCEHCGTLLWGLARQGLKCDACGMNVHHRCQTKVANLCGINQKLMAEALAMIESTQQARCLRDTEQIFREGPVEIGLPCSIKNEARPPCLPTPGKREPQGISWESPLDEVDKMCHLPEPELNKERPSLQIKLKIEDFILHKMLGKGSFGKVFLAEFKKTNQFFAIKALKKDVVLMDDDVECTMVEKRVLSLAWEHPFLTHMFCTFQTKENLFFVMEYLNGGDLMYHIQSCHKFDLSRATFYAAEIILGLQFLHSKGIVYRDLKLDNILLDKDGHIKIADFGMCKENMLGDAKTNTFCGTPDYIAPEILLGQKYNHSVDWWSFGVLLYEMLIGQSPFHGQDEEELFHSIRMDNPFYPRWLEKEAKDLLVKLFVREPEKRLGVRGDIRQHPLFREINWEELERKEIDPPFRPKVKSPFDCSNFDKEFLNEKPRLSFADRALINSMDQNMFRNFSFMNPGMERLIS

CSK(h) = CSK(h) (human, UniProt P41240 1-450)
Flt3(D835Y)(h) = molecular target: T3, Flt3(D835Y)(h)
GSK3β(h) = GSK3β(h) (human, UniProt P49841 1-420)
Sequence of GSK3β(h) (P49841 whole entry): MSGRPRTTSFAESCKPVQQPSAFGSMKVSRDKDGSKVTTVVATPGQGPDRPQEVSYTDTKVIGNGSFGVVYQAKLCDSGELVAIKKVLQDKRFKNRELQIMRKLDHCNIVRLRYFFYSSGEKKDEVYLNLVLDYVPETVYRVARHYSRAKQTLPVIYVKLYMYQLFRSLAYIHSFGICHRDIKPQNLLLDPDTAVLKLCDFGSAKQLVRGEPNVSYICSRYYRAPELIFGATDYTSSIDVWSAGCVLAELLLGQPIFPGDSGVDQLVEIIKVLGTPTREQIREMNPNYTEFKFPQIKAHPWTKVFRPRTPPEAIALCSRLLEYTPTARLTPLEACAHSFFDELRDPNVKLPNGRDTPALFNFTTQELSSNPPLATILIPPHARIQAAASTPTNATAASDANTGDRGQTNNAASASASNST

Ab1(H396P)(h) = Ab1(H396P)(h) (human, UniProt P00519 27-1130, limits assumed)
Sequence of Ab1(H396P)(h) (P00519 27-1130 H396P limits assumed): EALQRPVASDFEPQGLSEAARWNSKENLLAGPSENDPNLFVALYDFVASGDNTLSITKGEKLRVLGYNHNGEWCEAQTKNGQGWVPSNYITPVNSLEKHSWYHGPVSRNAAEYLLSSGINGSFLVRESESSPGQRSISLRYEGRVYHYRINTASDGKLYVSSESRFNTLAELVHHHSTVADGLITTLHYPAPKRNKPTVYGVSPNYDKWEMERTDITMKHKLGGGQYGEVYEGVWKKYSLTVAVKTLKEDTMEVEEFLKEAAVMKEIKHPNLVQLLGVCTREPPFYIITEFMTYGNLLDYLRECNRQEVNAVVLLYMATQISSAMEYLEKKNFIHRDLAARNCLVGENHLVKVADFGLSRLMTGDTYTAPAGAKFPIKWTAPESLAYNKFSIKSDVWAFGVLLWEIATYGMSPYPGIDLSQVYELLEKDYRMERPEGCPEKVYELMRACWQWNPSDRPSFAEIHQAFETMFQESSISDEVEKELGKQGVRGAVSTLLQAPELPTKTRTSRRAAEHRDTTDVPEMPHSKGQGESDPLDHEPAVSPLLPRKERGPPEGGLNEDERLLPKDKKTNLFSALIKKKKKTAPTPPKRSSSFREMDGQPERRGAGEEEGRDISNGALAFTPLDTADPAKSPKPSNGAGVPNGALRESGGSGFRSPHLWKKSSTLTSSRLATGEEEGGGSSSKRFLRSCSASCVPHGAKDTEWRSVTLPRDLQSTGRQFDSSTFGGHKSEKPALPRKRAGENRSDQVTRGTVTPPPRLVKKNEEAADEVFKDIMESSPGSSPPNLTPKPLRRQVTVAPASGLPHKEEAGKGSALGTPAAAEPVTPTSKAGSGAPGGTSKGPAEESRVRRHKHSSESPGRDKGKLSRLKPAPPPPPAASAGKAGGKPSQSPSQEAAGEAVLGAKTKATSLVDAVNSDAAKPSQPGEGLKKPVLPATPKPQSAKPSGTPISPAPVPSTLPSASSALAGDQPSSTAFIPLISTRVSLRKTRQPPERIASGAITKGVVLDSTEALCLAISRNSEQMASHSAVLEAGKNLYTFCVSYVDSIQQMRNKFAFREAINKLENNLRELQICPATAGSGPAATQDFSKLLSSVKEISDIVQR

CDK5/p35(h) = CDK5/p35(h) (human, UniProt Q00535 1-292; Q15078 1-307)
EphB4(h) = molecular target: T4, EphB4(h)

| % activity (Fes(h)) [%] | % activity (TBK1(h)) [%] | % activity (cSRC(h)) [%] | % activity (NEK11(h)) [%] | % activity (PAK6(h)) [%] | % activity (TrkB(h)) [%] | % activity (MSSK1(h)) [%] | % activity (PKCθ(h)) [%] | % activity (CSK(h)) [%] | % activity (Flt3(D835Y)(h)) [%] | % activity (GSK3β(h)) [%] | % activity (Ab1(H396P)(h)) [%] | % activity (CDK5/p35(h)) [%] | % activity (EphB4(h)) [%] | Binder |
| --- | --- | --- | --- | --- | --- | --- | --- | --- | --- | --- | --- | --- | --- | --- |
| 20 | 37 | 26 | 53 | 104 | 5 | 77 | 88 | 49 | 80 | 205 | 101 | 79 | 44 | FAKLAARLYRKALARQLGVAA [MMI-0300] |
| 16 | 39 | 14 | 33 | 100 | 8 | 75 | 76 | 16 | 71 | 202 | 105 | 76 | 28 | KAFAKLAARLYRKALARQLGVAA [MMI-0400] |
